Experimental findings from patent US20210070881A1 (DENALI THERAPEUTICS, published 2021) are described below.

The target in experiment [1] is T1, recombinant BACE1 (BACE1 extracellular domain, R&D Systems Cat#931-AS) (UniProt P56817 22-457).
T1 construct: extracellular domain; also called BACE1 extracellular domain protein
The experiment can be described thus: SPR Biacore.

The target of experiment [2] is cellular BACE1 in CHOK1-huAPP cells. The experiment can be described thus: cell-based or functional assay.
The target in experiment [3] is T1, recombinant BACE1 (BACE1 extracellular …). The experiment can be described thus: SPR Biacore. This is another data set of the same source.
For experiment [4] the target is unchanged. The experiment can be described thus: SPR Biacore 8K, antibody captured, BACE1 analyte. How it is done: The binding affinities of the affinity matured humanized 2H8 variants for BACE1 were determined by surface plasmon resonance using a Biacore™ 8K instrument. […] The binding was monitored for 300 seconds and then dissociation was monitored for 600+ seconds in HBS-EP+ running buffer (GE Healthcare Life Sciences, BR100669). Binding response was corrected by subtracting the RU from a blank flow cell. A 1:1 Langmuir model of simultaneous fitting of kₒₙ and koff was used for kinetics analysis.

T1 sequence (P56817 22-457): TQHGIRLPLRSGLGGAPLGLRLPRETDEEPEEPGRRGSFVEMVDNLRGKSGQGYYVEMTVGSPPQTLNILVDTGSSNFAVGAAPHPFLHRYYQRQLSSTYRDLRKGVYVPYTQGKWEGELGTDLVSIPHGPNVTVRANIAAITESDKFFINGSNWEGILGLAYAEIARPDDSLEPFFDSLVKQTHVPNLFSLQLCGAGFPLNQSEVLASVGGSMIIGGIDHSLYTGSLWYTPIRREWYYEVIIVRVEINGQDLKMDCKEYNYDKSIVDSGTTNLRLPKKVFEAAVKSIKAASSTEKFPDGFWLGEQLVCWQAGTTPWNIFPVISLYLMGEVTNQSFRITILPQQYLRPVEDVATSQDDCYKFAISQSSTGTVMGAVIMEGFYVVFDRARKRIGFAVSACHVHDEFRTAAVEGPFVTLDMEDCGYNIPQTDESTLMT

B1: 2H8.31 (antibody, human IgG1, V domains shown)
VH: EVQLQQSGPELVKPGASVKLSCKASGYTFTNFWIHWLKQRPGQGLEWIGMIDPSDSYTKYNQKFKAKATLTVDTSSSTTYMHLSSLTSEDSAVYYCARSGVAFPYWGQRTLVTVSA
VL: DIQMTQSQKFMSKSVGDRVSVTCKASQNVGSNVAWYQQKSGQSPKSLIYSASHRYSGVPDRFTGSGSGTDFTLTISNVQSEDLADYFCQQYNSYPYTFGGGTRLEIK
notes: human IgG1/kappa; also called 2H8_HC + 2H8_LCvar6
As for B1, in experiment [1], the Kd worked out at 11.1 nM, the off-rate constant (koff) was 0.000168 s⁻¹ and the kon is 15200 M⁻¹ s⁻¹. Moreover, in experiment [2], the “IC50” value came to 33 nM and the Max. % inhibition stood at 94%.

B2: 2H8.39 (antibody, human IgG1, V domains shown)
VH: EVQLQQSGAELVRPGTSVKLSCKASGYTFTSYWIHWVKQRPGQGLEWIGMIDPSDSYTKYNQKFKDKATLTVDTSSSTTYMHLSSLTSEDSAVYYCARSGVAFPYWGQRTLVTVSA
VL: DILMTQSQKFMSTSVGDRVSVTCKASQNVGRNVAWYQQISGQSPKPLIYSASHRYSGVPDRFTGSGSGTDFTLTISNVQSEDLVEFFCQQYNSYPYTFGGGTKLEIK
notes: human IgG1/kappa; also called 2H8_HCvar3 + 2H8_LCvar7
Consider B2, for which, in experiment [1], the Kd is 13 nM, the off-rate constant (koff) was 0.000217 s⁻¹ and the kon is 16600 M⁻¹ s⁻¹. In experiment [2], the “IC50” value amounted to 43 nM and the Max. % inhibition stood at 86%.

B3: 2H8.04 (antibody, human IgG1, V domains shown)
VH: EIQLQQSGTELVRPGTSVKLSCKASGYTFTNYWMHWVKQRPGQGLEWIGMIDPSAAYTNYNQNFKGKATLTVDTSSGTAYMQLSSLTSEDSAVYYCARSGVAFPYWGQGTTVTVSS
VL: DIVMTQSQKFMSKSVGDTVSVTCKASQDVGRNVAWYQQKSGQSPKSLIYSASHRYSGVPDRFTGSGSGTDFTLTISNVQSEDLADYFCQQYNSYPYTFGGGTRLEIK
notes: human IgG1/kappa; also called 2H8_HCvar4 + 2H8_LC
Consider B3, for which, in experiment [1], the Kd stood at 15.6 nM, the koff turned out to be 0.000362 s⁻¹ and the on-rate (kon) was 23300 M⁻¹ s⁻¹. Further, in experiment [2], the “IC50” value was 26 nM and the Max. % inhibition was 82%.

B4: 2H8.02 (antibody, human IgG1, V domains shown)
VH: EVQLQQPGTELVRPGTSVKLSCKASGYTFTNYWMHWIKQRPGQGLEWIGMIDPSDTYTKFNQNFKGKATLTVDTSSSTAYMQLNSLTSEDSAVYYCARSGVAFPYWGQGTTVTVSS
VL: DIVMTQSQKFMSKSVGDTVSVTCKASQDVGRNVAWYQQKSGQSPKSLIYSASHRYSGVPDRFTGSGSGTDFTLTISNVQSEDLADYFCQQYNSYPYTFGGGTRLEIK
notes: human IgG1/kappa; also called 2H8_HCvar2 + 2H8_LC
On to B4, for which, in experiment [1], the dissociation constant (Kd) is 13.1 nM, the koff worked out at 0.000265 s⁻¹ and the on-rate constant (kon) stood at 20200 M⁻¹ s⁻¹. In experiment [2], the concentration for half-maximal inhibition (IC50) was determined as 42 nM and the Max. % inhibition was found to be 81%.

B5: 2H8.37 (antibody, human IgG1, V domains shown)
VH: EVQLQQSGPELVKPGASVKLSCKASGYTFTNFWIHWLKQRPGQGLEWIGMIDPSDSYTKYNQKFKAKATLTVDTSSSTTYMHLSSLTSEDSAVYYCARSGVAFPYWGQRTLVTVSA
VL: DILMTQSQKFMSTSVGDRVSVTCKASQNVGRNVAWYQQISGQSPKPLIYSASHRYSGVPDRFTGSGSGTDFTLTISNVQSEDLVEFFCQQYNSYPYTFGGGTKLEIK
notes: human IgG1/kappa; also called 2H8_HC + 2H8_LCvar7
Consider B5, for which, in experiment [1], the Kd is 16.4 nM, the koff is 0.000331 s⁻¹ and the kon was found to be 20200 M⁻¹ s⁻¹. In addition, in experiment [2], the 50% inhibitory concentration (IC50) was determined as 32 nM and the Max. % inhibition is 93%.

B6: 2H8.42 (antibody, human IgG1, V domains shown)
VH: EVQLQQSGAELVRPGTSVKLSCKASGYTFNNYWMHWVKQRPGQGLEWIGMIDPSDDDIKNNQKFKGKATLTVDTSSSTAYMQLISLTSEDSAVYYCARSGVALPYWGQGTLVTVSA
VL: DILMTQSQKFMSTSVGDRVSVTCKASQNVGRNVAWYQQISGQSPKPLIYSASHRYSGVPDRFTGSGSGTDFTLTISNVQSEDLVEFFCQQYNSYPYTFGGGTKLEIK
notes: human IgG1/kappa; also called 2H8_HCvar6 + 2H8_LCvar7
Regarding B6, in experiment [1], the Kd was determined as 11.6 nM, the off-rate constant (koff) came out at 0.000221 s⁻¹ and the kon was found to be 19000 M⁻¹ s⁻¹. For the same molecule, in experiment [2], the “IC50” value worked out at 53 nM and the Max. % inhibition turned out to be 97%.

B7: 2H8.32 (antibody, human IgG1, V domains shown)
VH: EVQLQQPGTELVRPGTSVKLSCKASGYTFTNYWMHWIKQRPGQGLEWIGMIDPSDTYTKFNQNFKGKATLTVDTSSSTAYMQLNSLTSEDSAVYYCARSGVAFPYWGQGTTVTVSS
VL: DIQMTQSQKFMSKSVGDRVSVTCKASQNVGSNVAWYQQKSGQSPKSLIYSASHRYSGVPDRFTGSGSGTDFTLTISNVQSEDLADYFCQQYNSYPYTFGGGTRLEIK
notes: human IgG1/kappa; also called 2H8_HCvar2 + 2H8_LCvar6
In the case of B7, in experiment [1], the Kd stood at 11.4 nM, the off-rate constant (koff) came out at 0.000172 s⁻¹ and the kon amounted to 15100 M⁻¹ s⁻¹. In experiment [2], half-maximal inhibition (IC50) was put at 61 nM and the Max. % inhibition is 86%.

B8: 2H8.41 (antibody, human IgG1, V domains shown)
VH: EVQLQQPGAEVVRPGTSVKLSCKASGYTFTNYWMHWVKQRPGQGLEWIGMIDPSDNYTKYNQKLKGKATLTVDTSSSTANMHVNSLTSEDSAVYFCARSGVAFPYWGQGTLVTVSA
VL: DILMTQSQKFMSTSVGDRVSVTCKASQNVGRNVAWYQQISGQSPKPLIYSASHRYSGVPDRFTGSGSGTDFTLTISNVQSEDLVEFFCQQYNSYPYTFGGGTKLEIK
notes: human IgG1/kappa; also called 2H8_HCvar5 + 2H8_LCvar7
With B8, in experiment [1], the dissociation constant (Kd) amounted to 10.7 nM, the koff was found to be 0.000197 s⁻¹ and the association rate constant (kon) was found to be 18500 M⁻¹ s⁻¹. Moreover, in experiment [2], half-maximal inhibition (IC50) required 36 nM and the Max. % inhibition turned out to be 86%.

B9: 2H8.35 (antibody, human IgG1, V domains shown)
VH: EVQLQQPGAEVVRPGTSVKLSCKASGYTFTNYWMHWVKQRPGQGLEWIGMIDPSDNYTKYNQKLKGKATLTVDTSSSTANMHVNSLTSEDSAVYFCARSGVAFPYWGQGTLVTVSA
VL: DIQMTQSQKFMSKSVGDRVSVTCKASQNVGSNVAWYQQKSGQSPKSLIYSASHRYSGVPDRFTGSGSGTDFTLTISNVQSEDLADYFCQQYNSYPYTFGGGTRLEIK
notes: human IgG1/kappa; also called 2H8_HCvar5 + 2H8_LCvar6
Regarding B9, in experiment [1], the Kd stood at 15.2 nM, the koff amounted to 0.000171 s⁻¹ and the association rate constant (kon) stood at 11200 M⁻¹ s⁻¹. Moreover, in experiment [2], 41 nM corresponded to half-maximal inhibition (IC50) and the Max. % inhibition was 85%.

B10: 2H8.05 (antibody, human IgG1, V domains shown)
VH: EVQLQQPGAEVVRPGTSVKLSCKASGYTFTNYWMHWVKQRPGQGLEWIGMIDPSDNYTKYNQKLKGKATLTVDTSSSTANMHVNSLTSEDSAVYFCARSGVAFPYWGQGTLVTVSA
VL: DIVMTQSQKFMSKSVGDTVSVTCKASQDVGRNVAWYQQKSGQSPKSLIYSASHRYSGVPDRFTGSGSGTDFTLTISNVQSEDLADYFCQQYNSYPYTFGGGTRLEIK
notes: human IgG1/kappa; also called 2H8_HCvar5 + 2H8_LC
As for B10, in experiment [1], the dissociation constant (Kd) turned out to be 13.7 nM, the koff is 0.000251 s⁻¹ and the kon worked out at 18300 M⁻¹ s⁻¹. Besides, in experiment [2], the “IC50” value is 44 nM and the Max. % inhibition was determined as 87%.

B11: hu2H8v28 (antibody, V domains shown)
VH: QVQLVQSGAEVKKPGASVKVSCKASGYTFTNFWIHWVRQAPGQGLEWMGMIDPSDSYTKYNQKFKARATLTRDTSTSTVYMELSSLRSEDTAVYYCARSGVAFPYWGQGTLVTVSS
VL: DIQMTQSPSSLSASVGDRVTITCKASQDVGRNVAWYQQKPGKSPKSLIYSASHRYSGVPSRFSGSGSGTDFTLTISSLQPEDFATYFCQQYNSYPYTFGQGTKVEIK
notes: humanized; also called hu2H8_HC5 + hu2H8_LC5
In the case of B11, the dissociation constant (Kd) in experiment [3] was 19.5 nM.

B12: hu2H8v29.15 (antibody, V domains shown)
VH: QVQLVQSGAEVKKPGASVKVSCKASGYTFTNFYIHWVRQAPGQGLEWMGMIDPSDSYTKYNQKFKARATLTVDTSTSTVYMELSSLRSEDTAVYYCARSGVAFPYWGQGTLVTVSS
VL: DIQMTQSPSSLSASVGDRVTITCKASQDVGRNVAWYQQKPGKSPKSLIYSASHRYSGVPSRFSGSGSGTDFTLTISSLQPEDFATYFCQQYNSYPYTFGQGTKVEIK
notes: captured via human Fc; also called hu2H8_LC5 + hu2H8_HC6.4
B12: the Kd in experiment [4] amounted to 19.2 nM.

B13: hu2H8v30 (antibody, V domains shown)
VH: QVQLVQSGAEVKKPGASVKVSCKASGYTFTNFWIHWLRQAPGQGLEWMGMIDPSDSYTKYNQKFKARATLTVDTSTSTTYMELSSLRSEDTAVYYCARSGVAFPYWGQGTLVTVSS
VL: DIQMTQSPSSLSASVGDRVTITCKASQDVGRNVAWYQQKPGKSPKSLIYSASHRYSGVPSRFSGSGSGTDFTLTISSLQPEDFATYFCQQYNSYPYTFGQGTKVEIK
notes: humanized; also called hu2H8_HC7 + hu2H8_LC5
On to B13, for which the dissociation constant (Kd) in experiment [3] was 23.7 nM.

B14: hu2H8v29.16 (antibody, V domains shown)
VH: QVQLVQSGAEVKKPGASVKVSCKASGYTFTNFWIHWVRQAPGQGLEWMGIIDPSDSYTKYNQKFKARATLTVDTSTSTVYMELSSLRSEDTAVYYCARSGVAFPYWGQGTLVTVSS
VL: DIQMTQSPSSLSASVGDRVTITCKASQDVGRNVAWYQQKPGKSPKSLIYSASHRYSGVPSRFSGSGSGTDFTLTISSLQPEDFATYFCQQYNSYPYTFGQGTKVEIK
notes: captured via human Fc; also called hu2H8_LC5 + hu2H8_HC6.5
Turning to B14, the Kd in experiment [4] was found to be 31.3 nM.

B15: hu2H8v29.14 (antibody, V domains shown)
VH: QVQLVQSGAEVKKPGASVKVSCKASGYTFNSYWIHWVRQAPGQGLEWMGMIDPSDSYTKYNQKFKARATLTVDTSTSTVYMELSSLRSEDTAVYYCARSGVAFPYWGQGTLVTVSS
VL: DIQMTQSPSSLSASVGDRVTITCKASQDVGRNVAWYQQKPGKSPKSLIYSASHRYSGVPSRFSGSGSGTDFTLTISSLQPEDFATYFCQQYNSYPYTFGQGTKVEIK
notes: captured via human Fc; also called hu2H8_LC5 + hu2H8_HC6.3
Take B15: the Kd in experiment [4] was found to be 9.32 nM.

B16: hu2H8v29.12 (antibody, V domains shown)
VH: QVQLVQSGAEVKKPGASVKVSCKASGYTFNNFWIHWVRQAPGQGLEWMGMIDPSDSYTKYNQKFKARATLTVDTSTSTVYMELSSLRSEDTAVYYCARSGVAFPYWGQGTLVTVSS
VL: DIQMTQSPSSLSASVGDRVTITCKASQDVGRNVAWYQQKPGKSPKSLIYSASHRYSGVPSRFSGSGSGTDFTLTISSLQPEDFATYFCQQYNSYPYTFGQGTKVEIK
notes: captured via human Fc; also called hu2H8_LC5 + hu2H8_HC6.1
In the case of B16, the equilibrium dissociation constant (Kd) in experiment [4] turned out to be 8.42 nM.

B17: hu2H8v29.13 (antibody, V domains shown)
VH: QVQLVQSGAEVKKPGASVKVSCKASGYTFTNYWIHWVRQAPGQGLEWMGMIDPSDSYTKYNQKFKARATLTVDTSTSTVYMELSSLRSEDTAVYYCARSGVAFPYWGQGTLVTVSS
VL: DIQMTQSPSSLSASVGDRVTITCKASQDVGRNVAWYQQKPGKSPKSLIYSASHRYSGVPSRFSGSGSGTDFTLTISSLQPEDFATYFCQQYNSYPYTFGQGTKVEIK
notes: captured via human Fc; also called hu2H8_LC5 + hu2H8_HC6.2
As for B17, the Kd in experiment [4] was found to be 9.16 nM.
